Data: the supplement of paper PMC11316812
± gives the standard deviation of the averaged measurements.

Key:
MCF7 = test: percentage of EdU-negative (G0-arrested) nuclei per well, 72 h; higher = more G0 arrest; conditions: reference: sequence is the full UniProt precursor, the tested protein was the secreted form or ectodomain
hTERT-HMEC = test: as above; conditions: reference: sequence is the full UniProt precursor, the tested protein was the secreted form or ectodomain
[1] = protein concentration 0.03125 µM
[2] = protein concentration 0.3125 µM
[3] = protein concentration 0.0225 µM
[4] = protein concentration 0.02175 µM
[5] = protein concentration 0.2175 µM
[6] = protein concentration 0.0305714 µM
[7] = protein concentration 0.305714 µM
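Also: secreted proteins added to cultured cells, EdU pulse at the end, nuclei found by Hoechst imaging, EdU status from nuclear versus surrounding ring intensity ratio, PBS as neutral control.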

In the case of “MSALGAVIALLLWGQLFAVDSGNDVTDIADDGCPKPPEIAHGYVEHSVRYQCKNYYKLRTEGDGVYTLNDKKQWINKAVGDKLPECEADDGCPKPPEIAHGYVEHSVRYQCKNYYKLRTEGDGVYTLNNEKQWINKAVGDKLPECEAVCGKPKNPANPVQRILGGHLDAKGSFPWQAKMVSHHNLTTGATLINEQWLLTTAKNLFLNHSENATAKDIAPTLTLYVGKKQLVEIEKVVLHPNYSQVDIGLIKLKQKVSVNERVMPICLPSKDYAEVGRVGYVSGWGRNANFKFTDHLKYVMLPVADQDQCIRHYEGSTVPEKKTPKSPVGVQPILNEHTFCAGMSKYQEDTCYGDAGSAFAVHDLEEDTWYATGILSFDKSCAVAEYGVYVKVTSIQDWVQKTIAEN”, the “percentage of EdU-negative” value (MCF7; [1]) is reported as 23.8 ± 3%, the “percentage of EdU-negative” value (MCF7; [2]) is reported as 23.1 ± 0.73% and the “percentage of EdU-negative” value (hTERT-HMEC; [1]) is reported as 4.46 ± 0.32%. For the same sequence, the “percentage of EdU-negative” value (hTERT-HMEC; [2]) was 5.96 ± 1.1%.

“MSALWLLLGLLALMDLSESSNWGCYGNIQSLDTPGASCGIGRRHGLNYCGVRASERLAEIDMPYLLKYQPMMQTIGQKYCMDPAVIAGVLSRKSPGDKILVNMGDRTSMVQDPGSQAPTSWISESQVSQTTEVLTTRIKEIQRRFPTWTPDQYLRGGLCAYSGGAGYVRSSQDLSCDFCNDVLARAKYLKRHGF [Q8N1E2]” was tested, and the “percentage of EdU-negative” value (MCF7; [3]) was 25.6 ± 2%, the “percentage of EdU-negative” value (MCF7; protein concentration 0.225 µM) was 25.2 ± 0.58% and the “percentage of EdU-negative” value (hTERT-HMEC; [3]) was 4.76 ± 1.4%. For the same sequence, the “percentage of EdU-negative” value (hTERT-HMEC; protein concentration 0.225 µM) was 6.97 ± 0.29%.

For “MSAVLLLALLGFILPLPGVQALLCQFGTVQHVWKVSDLPRQWTPKNTSCDSGLGCQDTLMLIESGPQVSLVLSKGCTEAKDQEPRVTEHRMGPGLSLISYTFVCRQEDFCNNLVNSLPLWAPQPPADPGSLRCPVCLSMEGCLEGTTEEICPKGTTHCYDGLLRLRGGGIFSNLRVQGCMPQPGCNLLNGTQEIGPVGMTENCNRKDFLTCHRGTTIMTHGNLAQEPTDWTTSNTEMCEVGQVCQETLLLLDVGLTSTLVGTKGCSTVGAQNSQKTTIHSAPPGVLVASYTHFCSSDLCNSASSSSVLLNSLPPQAAPVPGDRQCPTCVQPLGTCSSGSPRMTCPRGATHCYDGYIHLSGGGLSTKMSIQGCVAQPSSFLLNHTRQIGIFSAREKRDVQPPASQHEGGGAEGLESLTWGVGLALAPALWWGVVCPSC [Q8N6Q3]”, the “percentage of EdU-negative” value (MCF7; [4]) was 26.1 ± 2.3%, the “percentage of EdU-negative” value (MCF7; [5]) was 26.7 ± 1% and the “percentage of EdU-negative” value (hTERT-HMEC; [4]) was 4.87 ± 0.96%. The “percentage of EdU-negative” value (hTERT-HMEC; [5]) was 6.31 ± 0.15%.

“MSCPVPACCALLLVLGLCRARPRNALLLLADDGGFESGAYNNSAIATPHLDALARRSLLFRNAFTSVSSCSPSRASLLTGLPQHQNGMYGLHQDVHHFNSFDKVRSLPLLLSQAGVRTGIIGKKHVGPETVYPFDFAYTEENGSVLQVGRNITRIKLLVRKFLQTQDDRPFFLYVAFHDPHRCGHSQPQYGTFCEKFGNGESGMGRIPDWTPQAYDPLDVLVPYFVPNTPAARADLAAQYTTVGRMDQGVGLVLQELRDAGVLNDTLVIFTSDNGIPFPSGRTNLYWPGTAEPLLVSSPEHPKRWGQVSEAYVSLLDLTPTILDWFSIPYPSYAIFGSKTIHLTGRSLLPALEAEPLWATVFGSQSHHEVTMSYPMRSVQHRHFRLVHNLNFKMPFPIDQDFYVSPTFQDLLNRTTAGQPTGWYKDLRHYYYRARWELYDRSRDPHETQNLATDPRFAQLLEMLRDQLAKWQWETHDPWVCAPDGVLEEKLSPQCQPLHNEL” was tested, and the “percentage of EdU-negative” value (MCF7; [3]) was 28.4 ± 3.8%, the “percentage of EdU-negative” value (MCF7; protein concentration 0.225 µM) was 26.4 ± 0.34% and the “percentage of EdU-negative” value (hTERT-HMEC; [3]) was 5.35 ± 1.4%. For the same sequence, the “percentage of EdU-negative” value (hTERT-HMEC; protein concentration 0.225 µM) was 7.84 ± 0.29%.

In the case of “MSDLGAVISLLLWGRQLFALYSGNDVTDISDDRFPKPPEIANGYVEHLFRYQCKNYYRLRTEGDGVYTLNDKKQWINKAVGDKLPECEAVCGKPKNPANPVQRILGGHLDAKGSFPWQAKMVSHHNLTTGATLINEQWLLTTAKNLFLNHSENATAKDIAPTLTLYVGKKQLVEIEKVVLHPNYHQVDIGLIKLKQKVLVNERVMPICLPSKNYAEVGRVGYVSGWGQSDNFKLTDHLKYVMLPVADQYDCITHYEGSTCPKWKAPKSPVGVQPILNEHTFCVGMSKYQEDTCYGDAGSAFAVHDLEEDTWYAAGILSFDKSCAVAEYGVYVKVTSIQHWVQKTIAEN”, the “percentage of EdU-negative” value (MCF7; protein concentration 0.029 µM) is reported as 26.82 ± 0.23%, the “percentage of EdU-negative” value (MCF7; protein concentration 0.29 µM) is reported as 26.1 ± 1.1% and the “percentage of EdU-negative” value (hTERT-HMEC; protein concentration 0.029 µM) is reported as 4.84 ± 0.049%. The “percentage of EdU-negative” value (hTERT-HMEC; protein concentration 0.29 µM) was 4.84 ± 0.17%.

“MSDSKEPRLQQLGLLEEEQLRGLGFRQTRGYKSLAGCLGHGPLVLQLLSFTLLAGLLVQVSKVPSSISQEQSRQDAIYQNLTQLKAAVGELSEKSKLQEIYQELTQLKAAVGELPEKSKLQEIYQELTRLKAAVGELPEKSKLQEIYQELTWLKAAVGELPEKSKMQEIYQELTRLKAAVGELPEKSKQQEIYQELTRLKAAVGELPEKSKQQEIYQELTRLKAAVGELPEKSKQQEIYQELTQLKAAVERLCHPCPWEWTFFQGNCYFMSNSQRNWHDSITACKEVGAQLVVIKSAEEQNFLQLQSSRSNRFTWMGLSDLNQEGTWQWVDGSPLLPSFKQYWNRGEPNNVGEEDCAEFSGNGWNDDKCNLAKFWICKKSAASCSRDEEQFLSPAPATPNPPPA [Q9NNX6]” was tested, and the “percentage of EdU-negative” value (MCF7; [6]) was 26.2 ± 1%, the “percentage of EdU-negative” value (MCF7; [7]) was 26.5 ± 0.49% and the “percentage of EdU-negative” value (hTERT-HMEC; [6]) was 4.977 ± 0.027%. The “percentage of EdU-negative” value (hTERT-HMEC; [7]) was 17 ± 4.1%.
